Data reported in US20240101668A1.

Columns and labels:
[1] = biological target: huFLT3-M227 stably expressed on Ramos cells (human) (UniProt P36888); experiment: FACS on cells
[2] = biological target: huFLT3-T227 stably expressed on Ramos cells (human) (UniProt P36888); experiment: FACS on cells

Binder | FACS geometric mean fold change over Jurkat parental [1] [fold] | FACS geometric mean fold change over Jurkat parental [2] [fold]
Polypeptide No. 232 (scFv, V domains shown) VH: QVQLVQSGAEVKKPGASVKVSCKASGYTFTSYGIHWVRQAPGQGLEWMGGIIPIFGTASYAQKFQGRVTMTRDTSTSTVYMELSSLRSEDTAVYYCTRSNGIAAAGTHWYFDLWGRGTLVTVSS VL: DIQMTQSPSSLSASVGDRVTITCRASQNIANSLNWYQQKPGKAPKLLIYAASSLQSGVPSRFSGSGSGTDFTLTISSLQPEDFATYYCQQYSSYPPTFGPGTKVDIKR | < 2 | < 2
Polypeptide No. 225 (scFv, V domains shown) VH: QVQLVQSGAEVKKPGSSVKVSCKASGYTLTELSIHWVRQAPGQGLEWMGGIVPMSGTASYAQKFQGRVTITADESTSTAYMELSSLRSEDTAVYYCARRRDGYNSWGQGTLVTVSS VL: DIVMTQSPDSLAVSLGERATINCKSSQSLLYGSKNYISWYQQKPGQPPKLLIYSSSTRESGVPDRFSGSGSGTDFTLTISSLQAEDVAVYYCQQYYTTPYTFGQGTKVEIKR | – | < 2
Polypeptide No. 250 (scFv, V domains shown) VH: QVQLVQSGAEVKKPGSSVKVSCKASGYTLTSFAMHWVRQAPGQGLEWMGRIIPMSGTANYAQKFQGRVTITADESTSTAYMELSSLRSEDTAVYYCASTSPDQYYYGMDVWGQGTTVTVSS VL: EIVMTQSPATLSVSPGERATLSCRASQSVGSSSLAWYQQKPGQAPRLLIYGASTRATGIPARFSGSGSGTEFTLTISSLQSEDFAVYYCQQYGSSPYTFGQGTKVEIKR | – | < 2
Polypeptide No. 281 (scFv, V domains shown) VH: QVQLVQSGAEVKKPGASVKVSCKASGYTFNSYGISWVRQAPGQGLEWMGIINPTGGSTTYAQKFQGRVTMTRDTSTSTVYMELSSLRSEDTAVYYCAKDPFVMDVWGQGTTVTVSS VL: EIVMTQSPATLSVSPGERATLSCRASQSVSSSYLAWYQQKPGQAPRLLIYDASARAAGIPARFSGSGSGTEFTLTISSLQSEDFAVYYCQQYYSTPYTFGQGTKLEIKR | – | < 2
Polypeptide No. 268 (scFv, V domains shown) VH: QVQLVQSGAEVKKPGSSVKVSCKASGGTFSTYALSWVRQAPGQGLEWMGGVIPVFGTTDYAHKFQGRVTITADESTSTAYMELSSLRSEDTAVYYCASMIIFGAGGWDAYYFQEWGQGTLVTVSS VL: EIVMTQSPATLSVSPGERATLSCRASQSVNNNQLAWYQQKPGQAPRLLIYDTSSRATGIPARFSGSGSGTEFTLTISSLQSEDFAVYYCQQYDTSPYTFGQGTKVEIKR | – | < 2
Polypeptide No. 201 (scFv, V domains shown) VH: QVQLVQSGAEVKKPGASVKVSCKASGGTFSSDGISWVRQAPGQGLEWMGWISAYHGHTNYAQKFQGRVTMTRDTSTSTVYMELSSLRSEDTAVYYCARGGKHSGSHRSYYYGMDVWGQGTTVTVSS VL: DIQMTQSPSSLSASVGDRVTITCRASHNIGNKLAWYQQKPGKAPKLLIYGATTLQSGVPSRFSGSGSGTDFTLTISSLQPEDFATYYCQQANSFPRTFGPGTKVDIKR | < 2 | < 2
Polypeptide No. 209 (scFv, V domains shown) VH: EVQLLESGGGLVQPGGSLRLSCAASGFAFSSYVLHWVRQAPGKGLEWVAGIWVDGHNKDYADSVKGRFTISRDNSKNTLYLQMNSLRAEDTAVYYCAREFGAAGSFQHWGQGTLVTVSS VL: DIQMTQSPSSLSASVGDRVTITCRASQSISTWLAWYQQKPGKAPKLLIYDASKLETGVPSRFSGSGSGTDFTLTISSLQPEDFATYYCQQSYTTPYTFGQGTKVEIKR | < 2 | < 2
Polypeptide No. 226 (scFv, V domains shown) VH: QVQLVQSGAEVKKPGASVKVSCKASGYTFTGYYMHWVRQAPGQGLEWMGIIDPSGGSTSYAQKFQGRVTMTRDTSTSTVYMELSSLRSEDTAVYYCARDRSLLWSGVGGMDVWGQGTTVTVSS VL: DIQMTQSPSSLSASVGDRVTITCRASQGISNYLAWYQQKPGKAPKLLIYGASNLQSGVPSRFSGSGSGTDFTLTISSLQPEDFATYYCQQSYGTPYTFGQGTKLEIKR | – | < 2
Polypeptide No. 227 (scFv, V domains shown) VH: QVQLVQSGAEVKKPGSSVKVSCKASGYTLNELFMHWVRQAPGQGLEWVGGIIPMSGTTFYAQTFQGRVTITADESTSTAYMELSSLRSEDTAVYYCAKGVRQYSYGRYYYGMDVWGQGTLVTVSS VL: DIQMTQSPSSLSASVGDRVTITCRASQSVSSYLNWYQQKPGKAPKLLIYGASNLQSGVPSRFSGSGSGTDFTLTISSLQPEDFATYYCQQSYTTPWTFGQGTRLEIKR | < 2 | < 2
Polypeptide No. 230 (scFv, V domains shown) VH: QVQLVQSGAEVKKPGSSVKVSCKASGGTFSSNAINWVRQAPGQGLEWMGGIIPLFGTTNYAQKFQGRVTITADESTSTAYMELSSLRSEDTAVYYCARVLSGWYGTYYFDYWGQGTLVTVSS VL: EIVMTQSPATLSVSPGERATLSCRASQSVSADYIAWYQQKPGQAPRLLIYDVSTRASGIPARFSGSGSGTEFTLTISSLQSEDFAVYYCQHYGSSQVTFGQGTKVEIKR | < 2 | < 2
Polypeptide No. 263 (scFv, V domains shown) VH: QVQLVQSGAEVKKPGSSVKVSCKASGGTFSSYAISWVRQAPGQGLEWMGGIIPIVGVANYAQKLQGRVTITADESTSTAYMELSSLRSEDTAVYYCAKDIGGYPSDAFDIWGQGTTVTVSS VL: EIVMTQSPATLSVSPGERATLSCRASQSVSSSYLAWYQQKPGQAPRLLIYDVSTRATGIPARFSGSGSGTEFTLTISSLQSEDFAVYYCQQYGSSPITFGQGTKVEIKR | – | < 2
Polypeptide No. 245 (scFv, V domains shown) VH: QVQLVQSGAEVKKPGSSVKVSCKASGYTFTGFYIHWVRQAPGQGLEWMGGVIPFFSRTIYAQKFQGRVTITADESTSTAYMELSSLRSEDTAVYYCAYGANGHLYGMDAWGQGTTVTVSS VL: EIVMTQSPATLSVSPGERATLSCRASQSVSSSYLAWYQQKPGQAPRLLIYGASTRATGIPARFSGSGSGTEFTLTISSLQSEDFAVYYCQQYSSSPLTFGQGTKVEIKR | – | < 2
Polypeptide No. 286 (scFv, V domains shown) VH: QVQLVQSGAEVKKPGASVKVSCKASGYTFTSYGISWVRQAPGQGLEWMGWISPNSGVTNYAQKFQGRVTMTRDTSTSTVYMELSSLRSEDTAVYYCVSDDYGAFDYWGQGTLVTVSS VL: EIVMTQSPATLSVSPGERATLSCRASQSVSSSYLAWYQQKPGQAPRLLIYDVSTRASGIPARFSGSGSGTEFTLTISSLQSEDFAVYYCQQYNNWPYTFGQGTKLEIKR | – | < 2
Polypeptide No. 224 (scFv, V domains shown) VH: QVQLVQSGAEVKKPGSSVKVSCKASGYTFTGYYMHWVRQAPGQGLEWMGVINPIYGTANYALKFQGRVTITADESTSTAYMELSSLRSEDTAVYYCAKAISSGWSNDAFDIWGQGTMVTVSS VL: EIVMTQSPATLSVSPGERATLSCRASQSVSSDFLAWYQQKPGQAPRLLIYDTSSRASGIPARFSGSGSGTEFTLTISSLQSEDFAVYYCQQYAGPPTFGQGTRLEIKR | – | < 2
Polypeptide No. 205 (scFv, V domains shown) VH: QVQLVQSGAEVKKPGSSVKVSCKASGGSFISHTFSWVRQAPGQGLEWMGGIIPISGTANYAQKFQGRVTITADESTSTAYMELSSLRSEDTAVYYCAKGRGQLVGGYFQHWGQGTLVTVSS VL: DIVMTQSPLSLPVTPGEPASISCRSSQSLLHSNGYNYLDWYLQKPGQSPQLLIYAASSLQSGVPDRFSGSGSGTDFTLKISRVEAEDVGVYYCMQALQTPLTFGQGTRLEIKR | < 2 | < 2
Polypeptide No. 236 (scFv, V domains shown) VH: QVQLVQSGAEVKKPGSSVKVSCKASGGTFSSYAISWVRQAPGQGLEWMGGIIPILGIANYAQKFQGRVTITADESTSTAYMELSSLRSEDTAVYYCAHVDGYGMDVWGQGTTVTVSS VL: EIVMTQSPATLSVSPGERATLSCRASQSVSSNLAWYQQKPGQAPRLLIYDVSSRATGIPARFSGSGSGTEFTLTISSLQSEDFAVYYCQQLDAYPLTFGGGTKVEIKR | < 2 | < 2
Polypeptide No. 282 (scFv, V domains shown) VH: QVQLVQSGAEVKKPGASVKVSCKASGGTFSSYAISWVRQAPGQGLEWMGWMNPNSGDTGYAQKFQGRVTMTRDTSTSTVYMELSSLRSEDTAVYYCARDFEGGGWFDPWGQGTLVTVSS VL: EIVMTQSPATLSVSPGERATLSCRASRSISDYLAWYQQKPGQAPRLLIYDASSRATGIPARFSGSGSGTEFTLTISSLQSEDFAVYYCQQYYTTPLTFGQGTKVEIKR | – | < 2
Polypeptide No. 276 (scFv, V domains shown) VH: QVQLVQSGAEVKKPGSSVKVSCKASGYTFTRFNIHWVRQAPGQGLEWMGWLNPFTGNTGYARKFQGRVTITADESTSTAYMELSSLRSEDTAVYYCASSSSWYGWFDPWGQGTLVTVSS VL: EIVMTQSPATLSVSPGERATLSCRASQSVSSYLAWYQQKPGQAPRLLIYDTSTRATGIPARFSGSGSGTEFTLTISSLQSEDFAVYYCQQYHSSPWTFGQGTKVEIKR | – | < 2
Polypeptide No. 211 (scFv, V domains shown) VH: EVQLLESGGGLVQPGGSLRLSCAASGFTFSNHYMSWVRQAPGKGLEWVSAIGAGGGTYYADSVKGRFTISRDNSKNTLYLQMNSLRAEDTAVYYCAKSSGYSYGRRPFDYWGQGTLVTVSS VL: DIQMTQSPSSLSASVGDRVTITCRASQGISNNLAWYQQKPGKAPKLLIYAASTLHNGVPSRFSGSGSGTDFTLTISSLQPEDFATYYCQQYGRSPKTFGQGTKVEIKR | < 2 | < 2
Polypeptide No. 220 (scFv, V domains shown) VH: QVQLVQSGAEVKKPGASVKVSCKASGYTFTGYYMYWVRQAPGQGLEWMGIINPRGGITSYAQRFQGRVTMTRDTSTSTVYMELSSLRSEDTAVYYCARGSTSSGWPNGDMDVWGKGTTVTVSS VL: DIQMTQSPSSLSASVGDRVTITCRASQGIRNDLGWYQQKPGKAPKLLIYAASSLQSGVPSRFSGSGSGTDFTLTISSLQPEDFATYYCQQANRFPPTFGQGTKVEIKR | < 2 | –
